Experimental data taken from the RNAGym collection of RNA variant scans (doi:10.1073/pnas.2313332121).

B1: TPR t1 (parent)
chain: GACCAAUCUGCCCUCAGAGCUCGAGAACAUCUUCGGAUGCAGAGGAGGCAGGCUUCGGUGGCGCGAUAGCGCCAACGUCCUCAACCUCCAAUGCAUCCCACCACAUGAUGAUGCCUGAAGAGCCUUGGUUUUUUG

Variants of: B1
Test: polymerase ribozyme fitness, log enrichment relative to wild type (log ratio); higher = more active; in vitro selection for triplet polymerase activity
Outline: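 In triplicate, a single round of in vitro selection was run on each mutant library, PCR-built and transcribed, covering one subunit of a heterodimeric triplet polymerase ribozyme. Frozen incubation at −7 °C followed annealing with a biotinylated primer, partner subunit and triplets, and extended constructs were then gel-excised, streptavidin-captured and taken through RT-PCR. Fitness is the logarithm of genotype enrichment over wild-type enrichment, from inverse-variance-weighted replicate averages of Illumina-sequenced inputs and outputs. […] only genotypes with ≥10 input reads and ≥1 read per output were kept.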

| Variant | polymerase ribozyme fitness (log ratio) |
| --- | --- |
| C114G | -2.37 |
| C114A | -1.39 |
| G113C C114U C115G C124U | -3.2 |
| C97U A103U G113C C115A U116A | -6.04 |
| G113C G122A C123U | -3.7 |
| C99U U131G | -3.59 |
| C99U U131C | -2.72 |
| C102A G117C | -6.66 |
| C115U G120A | -2.24 |
| C104G U112A | -4.8 |
| C99U C102G | -6.32 |
| C102U A118G | -1.73 |
| C114A A121U | -1.18 |
| G110A U130A | -0.862 |
| G110A U130C | -0.539 |
| A105G | -1.71 |
| A105C | -2.22 |
| A105U | -1.69 |
| G110A G120A | -1.23 |
| C99U C123G | -1.13 |
| C102A U109G | -2.56 |
| U112A | 1.34 |
| U112G | 0.661 |
| U112C | 1.39 |

| Variant | polymerase ribozyme fitness (log ratio) |
| --- | --- |
| C97U G110U A111G | -3.06 |
| G117U U129G | -4.23 |
| A111G U126C | 0.0972 |
| A111C U131C | 0.44 |
| G117C U126G | -3.22 |
| C99U U132A | -2.96 |
| A103G A118G | -4.56 |
| C97U C124U | 0.498 |
| G113U U134G | -1.78 |
| C102G U112A G127U | -4.33 |
| C101G A121U | -0.28 |
| G120A G135C | 0.457 |
| C97U G110C | -3.29 |
| C104A G120A | -0.701 |
| C114A U129G U130C | -2.79 |
| U109A G110A | -4.3 |
| C104A A111U | -3.1 |
| A111G C124A U126A | 0.226 |
| C101U U129A | -1.62 |
| G117U G127U | -4.77 |
| U116G C123A | -3.25 |
| A103C C123G | -2.94 |
| A105U G120U | -2.54 |
| U112C A119U | 1.24 |

| Variant | polymerase ribozyme fitness (log ratio) |
| --- | --- |
| C101G G135C | -1.41 |
| A105C G113U | -4.85 |
| U96A G128U | -1.89 |
| U112A C115A U125G | 0.414 |
| U112A U131A | 1.02 |
| C102U U130C | -1.87 |
| A103G G113A | -4.15 |
| A105U U106G G120C | 0.766 |
| C104A G135U | -2.01 |
| C114A C124A | -1.12 |
| U106C U116G | -2.03 |
| G107A A111U | -5.27 |
| A100U | -0.595 |
| A100G | -2.32 |
| A100C | -0.919 |
| C115A U132A | 0.0612 |
| C97G A121U | -2.07 |
| C101G C104U | -2.98 |
| C97U C101U U116G A118G | -4.15 |
| A111C G122A | -0.308 |
| A100C G122A | -1.49 |
| C101U A103U G113U | -7.03 |
| A95U C115A | -1.22 |
| U106G C115U | -4.44 |

| Variant | polymerase ribozyme fitness (log ratio) |
| --- | --- |
| G107A C114A | -4.24 |
| A100C C123A | -0.801 |
| U112A C123A | 1.45 |
| G113U A119C G122U | -4.35 |
| A108C C124G | -4.87 |
| U109C A121U | -3.68 |
| U106G C114U | -1.86 |
| C114U G120A C123U | -1.64 |
| C102A C124U | 0.448 |
| A100C G110U U112A | -5.07 |
| G113U A118U | -2.55 |
| C101A G120C | -0.0201 |
| U109A A119G | -5.27 |
| C115U A118U U130G | -1.69 |
| A95U G113A G127A | -2.73 |
| A111G G113U U129G U131A | -6.64 |
| U96C C123G G127C | -0.432 |
| U106C U131C U132A | -1.1 |
| U96A C104U U132A | -0.322 |
| G120C A121U | 2.44 |
| U96A U106A | -0.585 |
| A118U G120A | -0.267 |
| U112G G122A G128A | -2.62 |
| A100U G113A | -1.88 |

| Variant | polymerase ribozyme fitness (log ratio) |
| --- | --- |
| C101U U129G U130C | 0.135 |
| C97G C115G | -3.69 |
| G110C A121C U130A | -3.51 |
| U116C G117U | -1.01 |
| U106A C114G | -3.33 |
| C97A C124A | -2.9 |
| C98A G120C | -4.15 |
| U112C G122A | 0.065 |
| U112G C124U | 0.835 |
| U109A C114U A118C | -5.26 |
| C101A A111G | 0.362 |
| C99U C124A | -1.1 |
| C101G G120A G122C | -2.36 |
| C104A U112G | -1.47 |
| C98A C114U C123G U131C | -5.24 |
| C114G U133A | -2.37 |
| G113A G127U | -3.27 |
| G113A G122C G135C | -0.874 |
| G113C U130G | -2.88 |
| G113A C123U | -1.32 |
| G113A C123A | -1.45 |
| A103G C114U | -3 |
| U96A G117C | -5.1 |
| A103G G117A | -4.42 |

| Variant | polymerase ribozyme fitness (log ratio) |
| --- | --- |
| G113A C115A | -3.51 |
| C114A U129C | -1.63 |
| U112A U129A | 0.929 |
| C98G G120A | -4.76 |
| C104A C114G G127C | -6.1 |
| C98A | -5.14 |
| C98G | -5.78 |
| C98U | -1.2 |
| U112A G128C | -2.66 |
| U112G G120U G122C | -1.48 |
| U116G C124A | 0.803 |
| C115U G120A A121C | -2.04 |
| U96A A121C U126A | -0.501 |
| G117C G120U | -4.51 |
| C98U U129G | -2.41 |
| C98U C124G | -0.72 |
| C99A A121G | -4.75 |
| C114A U131A | -0.246 |
| G107A G120C | -3.25 |
| G107U A119U A121C | -3.29 |
| C114A U125A | -1.73 |
| C98U G135C | -0.757 |
| C115U A119U U130G | -1.35 |
| C114U U116A | -5.58 |

| Variant | polymerase ribozyme fitness (log ratio) |
| --- | --- |
| U106G U112G | -1.25 |
| C102A G127A | -3.45 |
| U112A G122C | 0.265 |
| U112A G122A | -0.631 |
| A111C G127C | -0.199 |
| A95U G113A | -2.53 |
| C98A U133G | -6.12 |
| G110A A111U | -1.9 |
| U116A C124A | 0.141 |
| U106A U132A | -0.65 |
| A105G C124U | -0.654 |
| G117U U133A | -3.13 |
| G110C U131C | -3.75 |
| G110U U130A | -1.27 |
| G110U U130C | -1.04 |
| C97U G120U U130C | -0.251 |
| G117U U131G | -4.64 |
| A100U G128A | -2.05 |
| U106G G120C | -0.678 |
| A100C U112G U116A | -4.36 |
| G117A U130G | -1.63 |
| C115G G120A | -1.35 |
| C102U G117U | -4.91 |
